For data set [1], the target named is T1, Kunitz trypsin inhibitor from soybeans (UniProt P01070).
T1 sequence: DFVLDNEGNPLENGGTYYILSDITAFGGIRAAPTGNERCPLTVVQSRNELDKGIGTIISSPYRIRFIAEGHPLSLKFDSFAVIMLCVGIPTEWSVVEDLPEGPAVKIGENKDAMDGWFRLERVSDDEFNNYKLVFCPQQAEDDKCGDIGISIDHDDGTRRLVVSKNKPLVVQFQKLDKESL

Data set [2] has as its target Kunitz trypsin inhibitor from soybeans (soybean) (UniProt P01070). Briefly: cell-based or functional assay.
Data set [3] deals with T2, Kunitz trypsin inhibitor from soybeans, P01070.
T2 chain: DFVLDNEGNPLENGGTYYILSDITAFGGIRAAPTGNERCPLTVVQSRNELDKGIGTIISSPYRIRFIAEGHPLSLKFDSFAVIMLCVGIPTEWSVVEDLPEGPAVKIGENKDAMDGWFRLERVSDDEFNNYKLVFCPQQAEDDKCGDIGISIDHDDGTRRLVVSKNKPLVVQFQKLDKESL

Take Bromelain: the Remaining TI activity (%) in data set [1] was determined as 30%.
For the molecule Albumin (control), the Remaining TI activity (%) in data set [2] is 100%.

B1: cysteine proteinase encoded by Aspergillus niger gene nr 28 (protein)
chain: MSKLSAAISKLSLSTIATTLLLLTPPTTAYFYKYPALFVYKDTNCTDISFSLVYPSLGNCNGGYYDYAGSFQMFNIDAAYTCNGSDSTLMFEMYNSSGSDCGDESDLLFRQPVTEECTVADVESPGPLEMPVWFELGSLLGNCGGMAGTMLFGVGILEGGLETKLYWKCYSSRLNTSVTVHRLSLILSMGCTSVSDSYNELAAAHYYEDL
The molecule B1 had a Remaining TI activity (%) in data set [3] of 26%.

B2: Papain (protein)
chain: IPEYVDWRQKGAVTPVKNQGSCGSCWAFSAVVTIEGIIKIRTGNLNEYSEQELLDCDRRSYGCNGGYPWSALQLVAQYGIHYRNTYPYEGVQRYCRSREKGPYAAKTDGVRQVQPYNEGALLYSIANQPVSVVLEAAGKDFQLYRGGIFVGPCGNKVDHAVAAVGYGPNYILIKNSWGTGWGENGYIRIKRGTGNSYGVCGLYTSSFYPVKN
For the molecule B2, in data set [3], the Remaining TI activity (%) was 25%.

The values are drawn from patent US20050064403A1.
